Patent US20220306744A1 (CRESCENDO BIOLOGICS, published 2022)

B1: 1.70b (VHH)
VHH: QVQLVESGGGLVKPGGSLRLSCAASGFTFGDSSMTWMRQAPGKGLEWVSYISSGGAVKFYTDSVKGRFTISRDNAKNSLYLQMNSLRADDTAVYYCAREAPLRLGESPHDAFDISGQGTMVTVSS
B2: 1.97b (VHH)
VHH: EVQLVESGGGLVKPGGSLRLSCAASGFTFSDISMTWMRQAPGKGLEWVSYISSGGGVKFYADSVKGRFTISRDNAKNSLYLQMNSLRAEDTAVYYCAREAPLRLGESPHDAFDISGQGTMVTVSS
B3: 1.72b (VHH)
VHH: QVQLVESGGGLVKPGGSLRLSCAASGFTFSDSSMSWMRQAPGKGLEWVSYISSGGGVIFYADSVKGRFTISRDNAKNSLYLQMNSLRADDTAVYYCAREAPLRLGESPHDAFDISGQGTMVTVSS
B4: 1.93b (VHH)
VHH: EVQLVESGGGLVKPGGSLRLSCAASGFTFSDASMTWMRQAPGKGLEWVSYISSGGGVKFYADSVKGRFTISRDNAKNSLYLQMNSLRAEDTAVYYCAREAPLRLGESPHDAFDISGQGTMVTVSS
B5: 1.91b (VHH)
VHH: EVQLVESGGGLVKPGGSLRLSCAASGFTFSDQSMTWMRQAPGKGLEWVSYISSGGGVKFYADSVKGRFTISRDNAKNSLYLQMNSLRAEDTAVYYCAREAPLRLGESPHDAFDISGQGTMVTVSS
B6: 1.92b (VHH)
VHH: EVQLVESGGGLVKPGGSLRLSCAASGFTFSDESMTWMRQAPGKGLEWVSYISSGGGVKFYADSVKGRFTISRDNAKNSLYLQMNSLRAEDTAVYYCAREAPLRLGESPHDAFDISGQGTMVTVSS
notes: also called Humabody 1.92b
B7: 1.73b (VHH)
VHH: QVQLVESGGGLVKPGGSLRLSCAATGFTFSDSSMTWMRQAPGKGLEWVSYISAGGGVRFYTDSVKGRFTISRDNAKNSLYLQMNSLRADDTAVYYCAREAPLRLGESPHDAFDISGQGTMVTVSS
B8: 1.86b (VHH)
VHH: EVQLVESGGGLVKPGGSLRLSCAASGFTFSDASMTWMRQAPGKGLEWVSYISSGGGVKFYTDSVKGRFTISRDNAKNSLYLQMNSLRAEDTAVYYCAREAPLRLGESPHDAFDISGQGTMVTVSS
B9: 1.98b (VHH)
VHH: EVQLVESGGGLVKPGGSLRLSCAASGFTFSDKSMTWMRQAPGKGLEWVSYISSGGGVKFYADSVKGRFTISRDNAKNSLYLQMNSLRAEDTAVYYCAREAPLRLGESPHDAFDISGQGTMVTVSS
B10: 1.100b (VHH)
VHH: EVQLVESGGGLVKPGGSLRLSCAASGFTFSDLSMTWMRQAPGKGLEWVSYISSGGGVKFYADSVKGRFTISRDNAKNSLYLQMNSLRAEDTAVYYCAREAPLRLGESPHDAFDISGQGTMVTVSS
B11: 1.88b (VHH)
VHH: EVQLVESGGGLVKPGGSLRLSCAASGFTFSDRSMTWMRQAPGKGLEWVSYISSGGGVKFYTDSVKGRFTISRDNAKNSLYLQMNSLRAEDTAVYYCAREAPLRLGESPHDAFDISGQGTMVTVSS
B12: 1.89b (VHH)
VHH: EVQLVESGGGLVKPGGSLRLSCAASGFTFSDYSMTWMRQAPGKGLEWVSYISSGGGVKFYADSVKGRFTISRDNAKNSLYLQMNSLRAEDTAVYYCAREAPLRLGESPHDAFDISGQGTMVTVSS
B13: 1.90b (VHH)
VHH: EVQLVESGGGLVKPGGSLRLSCAASGFTFSDVSMTWMRQAPGKGLEWVSYISSGGGVKFYADSVKGRFTISRDNAKNSLYLQMNSLRAEDTAVYYCAREAPLRLGESPHDAFDISGQGTMVTVSS
B14: 1.95b (VHH)
VHH: EVQLVESGGGLVKPGGSLRLSCAASGFTFSDGSMTWMRQAPGKGLEWVSYISSGGGVKFYADSVKGRFTISRDNAKNSLYLQMNSLRAEDTAVYYCAREAPLRLGESPHDAFDISGQGTMVTVSS
B15: 1.77b (VHH)
VHH: EVQLVESGGGLVKPGGSLRLSCAASGFTFSDSSMTWMRQAPGKGLEWVSYISSGGGVKFYTDSVKGRFTISRDNAKNSLYLQMNSLRAEDTAVYYCAREAPLRLGESPHDAFDISGQGTMVTVSS
notes: also called Humabody 1.77b
B16: 1.81b (VHH)
VHH: EVQLVESGGGLVKPGGSLRLSCAASGFTFSDSSMTWVRQAPGKGLEWVSYISSGGGVKFYADSVKGRFTISRDNAKNSLYLQMNSLRAEDTAVYYCAREAPLRLGESPHDAFDISGQGTMVTVSS
B17: 1.74b (VHH)
VHH: EVQLVESGGGLVKPGGSLRLSCAASGFTFSDSSMTWIRQAPGKGLEWVSYISSGGGVKFYTDSVKGRFTISRDNAKNSLYLQMNSLRADDTAVYYCAREAPLRLGESPHDAFDISGQGTMVTVSS
B18: 1.75b (VHH)
VHH: EVQLVESGGGLVKPGGSLRLSCAASGFTFSDSSMTWIRQAPGKGLEWVSYISSGGGVKFYTDSVKGRFTISRDNAKNSLYLQMNSLRAEDTAVYYCAREAPLRLGESPHDAFDISGQGTMVTVSS
B19: 1.84b (VHH)
VHH: EVQLVESGGGLVKPGGSLRLSCAASGFTFSDESMTWMRQAPGKGLEWVSYISSGGGVKFYTDSVKGRFTISRDNAKNSLYLQMNSLRAEDTAVYYCAREAPLRLGESPHDAFDISGQGTMVTVSS
B20: 1.82b (VHH)
VHH: EVQLVESGGGLVKPGGSLRLSCAASGFTFSDTSMTWMRQAPGKGLEWVSYISSGGGVKFYTDSVKGRFTISRDNAKNSLYLQMNSLRAEDTAVYYCAREAPLRLGESPHDAFDISGQGTMVTVSS
B21: 1.80b (VHH)
VHH: EVQLVESGGGLVKPGGSLRLSCAASGFTFSDSSMTWMRQAPGKGLEWVSYISSGGGVKFYADSVKGRFTISRDNAKNSLYLQMNSLRAEDTAVYYCAREAPLRLGESPHDAFDISGQGTMVTVSS
B22: 1.79b (VHH)
VHH: EVQLVESGGGLVKPGGSLRLSCAASGFTFSDSSMTWKRQAPGKGLEWVSYISSGGGVKFYADSVKGRFTISRDNAKNSLYLQMNSLRAEDTAVYYCAREAPLRLGESPHDAFDISGQGTMVTVSS
B23: 1.94b (VHH)
VHH: EVQLVESGGGLVKPGGSLRLSCAASGFTFSDWSMTWMRQAPGKGLEWVSYISSGGGVKFYADSVKGRFTISRDNAKNSLYLQMNSLRAEDTAVYYCAREAPLRLGESPHDAFDISGQGTMVTVSS
B24: 1.78b (VHH)
VHH: EVQLVESGGGLVKPGGSLRLSCAASGFTFSDSSMTWIRQAPGKGLEWVSYISSGGGVKFYADSVKGRFTISRDNAKNSLYLQMNSLRAEDTAVYYCAREAPLRLGESPHDAFDISGQGTMVTVSS
B25: 1.96b (VHH)
VHH: EVQLVESGGGLVKPGGSLRLSCAASGFTFSDTSMTWMRQAPGKGLEWVSYISSGGGVKFYADSVKGRFTISRDNAKNSLYLQMNSLRAEDTAVYYCAREAPLRLGESPHDAFDISGQGTMVTVSS
B26: 1.85b (VHH)
VHH: EVQLVESGGGLVKPGGSLRLSCAASGFTFSDYSMTWMRQAPGKGLEWVSYISSGGGVKFYTDSVKGRFTISRDNAKNSLYLQMNSLRAEDTAVYYCAREAPLRLGESPHDAFDISGQGTMVTVSS
B27: 1.87b (VHH)
VHH: EVQLVESGGGLVKPGGSLRLSCAASGFTFSDKSMTWMRQAPGKGLEWVSYISSGGGVKFYTDSVKGRFTISRDNAKNSLYLQMNSLRAEDTAVYYCAREAPLRLGESPHDAFDISGQGTMVTVSS
B28: 1.83b (VHH)
VHH: EVQLVESGGGLVKPGGSLRLSCAASGFTFSDESMTWFRQAPGKGLEWVSYISSGGGVKFYTDSVKGRFTISRDNAKNSLYLQMNSLRAEDTAVYYCAREAPLRLGESPHDAFDISGQGTMVTVSS
B29: 1.99b (VHH)
VHH: EVQLVESGGGLVKPGGSLRLSCAASGFTFSDRSMTWMRQAPGKGLEWVSYISSGGGVKFYADSVKGRFTISRDNAKNSLYLQMNSLRAEDTAVYYCAREAPLRLGESPHDAFDISGQGTMVTVSS
B30: 1.71b (VHH)
VHH: QVQLVESGGGLVKPGGSLRLSCAASGFTFGGSSMTWMRQAPGKGLEWVSYISSGGGVKFYTDSVKGRFTISRDNAKNSLYLQMNSLRADDTAVYYCAREAPLRLGESPHDAFDISGQGTMVTVSS
B31: 1.76b (VHH)
VHH: EVQLVESGGGLVKPGGSLRLSCAASGFTFSDSSMTWIRQAPGKGLEWVSYISSGGGVKFYADSVKGRFTISRDNAKNSLYLQMNSLRADDTAVYYCAREAPLRLGESPHDAFDISGQGTMVTVSS

target: T1, human PD-1 expressed on cells (CHO TREX human PD1 cell line, full-length human PD-1 sequence) (human, UniProt Q15116 21-288); assay: worded summary of the screens
T1 construct: Also used for human PD-1 on Jurkat reporter cells, on PathHunter cells and on PHA-stimulated human CD4+ T cells; also called CHO human PD1 cells; CHO human PD-1 cells
T1 sequence (Q15116 21-288): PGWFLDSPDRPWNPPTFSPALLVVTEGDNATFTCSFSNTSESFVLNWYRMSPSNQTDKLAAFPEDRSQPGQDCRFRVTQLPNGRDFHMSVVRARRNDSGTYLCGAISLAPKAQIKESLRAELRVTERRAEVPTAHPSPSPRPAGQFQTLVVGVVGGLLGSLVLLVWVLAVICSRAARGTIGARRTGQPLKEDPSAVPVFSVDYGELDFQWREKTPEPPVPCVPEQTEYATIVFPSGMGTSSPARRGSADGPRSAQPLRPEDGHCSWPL

Binding result, binds:
B1
B2
B3
B4
B5
B6
B7
B8
B9
B10
B11
B12
B13
B14
B15
B16
B17
B18
B19
B20
B21
B22
B23
B24
B25
B26
B27
B28
B29
B30
B31
